Laboratory results: PMC7895813 (Journal of Molecular Biology, 2021)
One block for each binder: values may come before it.

Key:
[1] = biological target: the molecule itself; assay: SEC; cleaved MDM2 variants after removal of the GST-tag on HiLoad 16/600 Superdex 75; oligomeric state by comparison with molecular weight markers
[2] = biological target: the molecule itself; assay: SEC; GST-MDM2 variants (3 mg/mL) incubated with 1:10 TEV for 16-20 h at 4 °C; soluble fraction of the cleaved products on Superdex 75 Increase 10/300; comparison with molecular weight markers and SDS-PAGE
[3] = biological target: T1, UbcH5B–Ub, isopeptide-linked E2–Ub conjugate (UbcH5B S22R C85K) (human | , UniProt P62837 1-147; P0CG48 1-76, S22R | C85K, lysine 85 (C85K) isopeptide-linked to the C-terminus of Ub | C-terminus isopeptide-linked to lysine 85 of UbcH5B); assay: SPR; GST-tagged MDM2 variants captured on a CM-5 chip with coupled anti-GST antibody; serial dilution of UbcH5B–Ub as analyte; Biacore T200, 25 °C; 25 mM Tris-HCl pH 7.6, 150 mM NaCl, 1 mM DTT, 0.005% Tween-20; two technical replicates; conditions: both partners purified
T1 construct: ubiquitin (Ub), the cut product of the ubiquitin precursor; Ub was cloned with an N-terminal 6xHis-tag, a TEV cleavage site and a GGS linker; also called E2(UbcH5B)–Ub; source: E. coli BL21(DE3) GOLD, purified; conjugate generated as described previously

B1: Danio rerio MDM2 407-C (MDM2^z), GST-tag removed (domain or fragment, Danio rerio (zebrafish), UniProt O42354 377-445, looked up)
chain: FNSLEACLPATCLEPCVICQSRPKNGCIVHGRTGHLMACYTCAKKLKNRNKLCPVCREPIQSVVLTYMS
notes: MDM2, Danio rerio (zebrafish), residues 407 to the C-terminus; 407-417 correspond to 423-433 of human MDM2, which implies a numbered chain of about 475 residues; also called zebrafish MDM2 407-C; source: E. coli BL21(DE3) GOLD, GST-tag released with TEV, Superdex 75 gel filtration; not shown: GST, N-terminal, cleaved
stoichiometry N [1]: 2

B2: MDM2^h A434S (human MDM2 419-C A434S), GST-tag removed (domain or fragment, UniProt Q00987 419-491, looked up)
chain: TQDKEESVESSLPLNSIEPCVICQGRPKNGCIVHGKTGHLMACFTCAKKLKKRNKPCPVCRQPIQMIVLTYFP
notes: MDM2, human, residues 419 to the C-terminus, with A434S; source: E. coli BL21(DE3) GOLD, GST-MDM2 treated with TEV, soluble cleaved products on analytical SEC; not shown: GST, N-terminal, cleaved
binding result [2]: binds

Kd [3]: 16.3 ± 1.9 µM
B3: GST-tagged human MDM2 419-C G443T (MDM2^hGT) (domain or fragment, UniProt Q00987 419-491, looked up)
chain: TQDKEESVESSLPLNAIEPCVICQTRPKNGCIVHGKTGHLMACFTCAKKLKKRNKPCPVCRQPIQMIVLTYFP
notes: MDM2, human, residues 419 to the C-terminus, with G443T; pGEX-4T1, N-terminal GST-tag followed by a TEV cleavage site; GST kept for SPR and ubiquitination assays; also called GST-MDM2^hGT; MDM2^h G443T; source: E. coli BL21(DE3) GOLD, purified (glutathione Sepharose, gel filtration); not shown: GST, N-terminal, kept

B4: MDM2^h I435V (human MDM2 419-C I435V), GST-tag removed (domain or fragment, UniProt Q00987 419-491, looked up)
chain: TQDKEESVESSLPLNAVEPCVICQGRPKNGCIVHGKTGHLMACFTCAKKLKKRNKPCPVCRQPIQMIVLTYFP
notes: MDM2, human, residues 419 to the C-terminus, with I435V; source: E. coli BL21(DE3) GOLD, GST-MDM2 treated with TEV, soluble cleaved products on analytical SEC; not shown: GST, N-terminal, cleaved
binding result [2]: binds

B5: MDM2^h P491S (human MDM2 419-C P491S), GST-tag removed (domain or fragment, UniProt Q00987 419-491, looked up)
chain: TQDKEESVESSLPLNAIEPCVICQGRPKNGCIVHGKTGHLMACFTCAKKLKKRNKPCPVCRQPIQMIVLTYFS
notes: MDM2, human, residues 419 to the C-terminus, with P491S; source: E. coli BL21(DE3) GOLD, GST-MDM2 treated with TEV, soluble cleaved products on analytical SEC; not shown: GST, N-terminal, cleaved
binding result [2]: binds

Kd [3]: 13.5 ± 0.6 µM
B6: GST-tagged human MDM2 419-C (MDM2^h) (domain or fragment, UniProt Q00987 419-491, looked up)
chain: TQDKEESVESSLPLNAIEPCVICQGRPKNGCIVHGKTGHLMACFTCAKKLKKRNKPCPVCRQPIQMIVLTYFP
notes: MDM2, human, residues 419 to the C-terminus (RING domain with the preceding region); pGEX-4T1, N-terminal GST-tag followed by a TEV cleavage site; GST kept for SPR and ubiquitination assays; also called GST-MDM2^h; wild-type MDM2^h; source: E. coli BL21(DE3) GOLD, purified (glutathione Sepharose, gel filtration); not shown: GST, N-terminal, kept

B7: human MDM2 419-C G443T (MDM2^hGT), GST-tag removed (domain or fragment, UniProt Q00987 419-491, looked up)
chain: TQDKEESVESSLPLNAIEPCVICQTRPKNGCIVHGKTGHLMACFTCAKKLKKRNKPCPVCRQPIQMIVLTYFP
notes: MDM2, human, residues 419 to the C-terminus, with G443T; also called MDM2^h G443T; MDM2-G443T; source: E. coli BL21(DE3) GOLD, GST-tag released with TEV, Superdex 75 gel filtration; not shown: GST, N-terminal, cleaved
stoichiometry N [2]: 2
